Test results taken from FireProtDB (doi:10.1093/oxfordjournals.jbchem.a021544).

B1: Lysozyme C, P61626 (parent)
chain: MKALIVLGLVLLSVTVQGKVFERCELARTLKRLGMDGYRGISLANWMCLAKWESGYNTRATNYNAGDRSTDYGIFQINSRYWCNDGKTPGAVNACHLSCSALLQDNIADAVACAKRVVRDPQGIRAWVAWRNRCQNRDVRQYVQGCGV

Variants of: B1
Conditions: Homo sapiens; pH 2.67; Thermal; DSC; glycine 0.05 M; reversible: yes; structure 1LZ1; whole UniProt chain shown

Variant	Tm	heat capacity change of unfolding	unfolding enthalpy (calorimetric)	unfolding enthalpy (van 't Hoff)
MKALIVLGLVLLSVTVQGKVFERCELARTLKRLGMDGYRGISLANWMCLAKWESGYNTRATNYNAGDRSTDYGTFQINSRYWCNDGKTPGAVNACHLSCSALLQDNIADAVACAKRVVRDPQGIRAWVAWRNRCQNRDVRQYVQGCGV	51.8 °C	1 kcal/mol/K	87.8 kcal/mol	90.9 kcal/mol

Same assay, conditions: Homo sapiens; pH 2.7; 64.9 °C; Thermal; DSC; glycine 0.05 M; reversible: yes; structure 1LZ1; whole UniProt chain shown

Variant	ddG of mutation (higher = less stable)	heat capacity change of unfolding
MKALIVLGLVLLSVTVQGKVFERCELARTLKRLGMDGYRGISLANWMCLAKWESGYNTRATNYNAGDRSTDYGTFQINSRYWCNDGKTPGAVNACHLSCSALLQDNIADAVACAKRVVRDPQGIRAWVAWRNRCQNRDVRQYVQGCGV	3.64 kcal/mol	1.24 kcal/mol/K

Same assay, conditions: Homo sapiens; pH 2.7; Thermal; DSC; glycine 0.05 M; reversible: yes; structure 1LZ1; whole UniProt chain shown

Variant	Tm	change of melting temperature, mutant - wild type (higher = more stable)	heat capacity change of unfolding	unfolding enthalpy (calorimetric)	unfolding enthalpy (van 't Hoff)
MKALIVLGLVLLSVTVQGKVFERCELARTLKRLGMDGYRGISLANWMCLAKWESGYNTRATNYNAGDRSTDYGTFQINSRYWCNDGKTPGAVNACHLSCSALLQDNIADAVACAKRVVRDPQGIRAWVAWRNRCQNRDVRQYVQGCGV	52.4 °C	-12.5 °C	1.24 kcal/mol/K	102 kcal/mol	108 kcal/mol

Same assay, conditions: Homo sapiens; pH 2.98; Thermal; DSC; glycine 0.05 M; reversible: yes; structure 1LZ1; whole UniProt chain shown

Variant	Tm	heat capacity change of unfolding	unfolding enthalpy (calorimetric)	unfolding enthalpy (van 't Hoff)
MKALIVLGLVLLSVTVQGKVFERCELARTLKRLGMDGYRGISLANWMCLAKWESGYNTRATNYNAGDRSTDYGTFQINSRYWCNDGKTPGAVNACHLSCSALLQDNIADAVACAKRVVRDPQGIRAWVAWRNRCQNRDVRQYVQGCGV	58 °C	1.2 kcal/mol/K	93.3 kcal/mol	102 kcal/mol

Same assay, conditions: Homo sapiens; pH 3.11; Thermal; DSC; glycine 0.05 M; reversible: yes; structure 1LZ1; whole UniProt chain shown

Variant	Tm	heat capacity change of unfolding	unfolding enthalpy (calorimetric)	unfolding enthalpy (van 't Hoff)
MKALIVLGLVLLSVTVQGKVFERCELARTLKRLGMDGYRGISLANWMCLAKWESGYNTRATNYNAGDRSTDYGTFQINSRYWCNDGKTPGAVNACHLSCSALLQDNIADAVACAKRVVRDPQGIRAWVAWRNRCQNRDVRQYVQGCGV	60.5 °C	1.15 kcal/mol/K	97.6 kcal/mol	103 kcal/mol
